In US20260042827A1 (published 2026):

How the values were obtained:
HLA-DP4 = biological target: T1, HLA-DP4 (human, UniProt P20036 29-222; P04440 30-225); test: competition
T1 chain 1: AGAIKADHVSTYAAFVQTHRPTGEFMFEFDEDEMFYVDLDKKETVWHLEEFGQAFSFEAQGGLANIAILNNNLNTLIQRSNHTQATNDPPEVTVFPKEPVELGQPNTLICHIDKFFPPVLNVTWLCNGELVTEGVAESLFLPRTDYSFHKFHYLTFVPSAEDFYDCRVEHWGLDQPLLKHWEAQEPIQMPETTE
T1 chain 2: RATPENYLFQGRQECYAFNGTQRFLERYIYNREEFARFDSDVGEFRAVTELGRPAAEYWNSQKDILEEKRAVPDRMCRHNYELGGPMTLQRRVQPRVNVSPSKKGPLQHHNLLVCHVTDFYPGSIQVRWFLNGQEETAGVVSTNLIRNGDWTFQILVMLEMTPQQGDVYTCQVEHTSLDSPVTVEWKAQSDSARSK

HLA-DP2 = biological target: T2, HLA-DP2 (human, UniProt P20036 29-222; P04440 30-225); test: competition
T2 chain 1: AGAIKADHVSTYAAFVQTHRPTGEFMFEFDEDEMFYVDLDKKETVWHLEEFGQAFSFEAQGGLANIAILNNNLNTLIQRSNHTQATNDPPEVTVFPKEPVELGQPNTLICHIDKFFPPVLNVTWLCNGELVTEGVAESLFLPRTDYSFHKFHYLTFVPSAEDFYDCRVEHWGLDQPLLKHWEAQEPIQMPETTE
T2 chain 2: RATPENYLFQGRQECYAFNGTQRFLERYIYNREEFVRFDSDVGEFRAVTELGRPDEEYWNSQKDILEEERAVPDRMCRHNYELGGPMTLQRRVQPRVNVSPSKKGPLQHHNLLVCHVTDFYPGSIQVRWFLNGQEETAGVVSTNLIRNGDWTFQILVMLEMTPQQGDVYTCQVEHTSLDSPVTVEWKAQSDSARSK

PGCNKRYFKLSHLQMHSRKHT [WT1328-348]
IC50 (HLA-DP4): 23.8 µM | IC50 (HLA-DP2): 8 µM
